Experiment [1] has as its target T1, Rsp5 WW1-HECT domain (224-809) (S. cerevisiae, UniProt P39940 224-809).
T1 construct: Rsp5 WW1-HECT, S. cerevisiae, residues 224-809; also called purified WW domains from Rsp5; source: E. coli Rosetta (DE3), purified (TALON, Ulp1 cleavage, Superdex 200); not shown: His6, N-terminal, cleaved; SUMO, N-terminal, cleaved
The experiment in a line: ITC; Affinity-ITC calorimeter, 25°C; 20 mM Tris-HCl pH 7.5, 150 mM NaCl, 1 mM DTT; independent binding model. To be noted: both partners purified. (In general: ITC needs no label: the signal is the heat of the interaction.)

In experiment [2] the target is T2, Rsp5 HECT domain (444-809) (S. cerevisiae, UniProt P39940 444-809).
T2 construct: Rsp5 HECT domain, S. cerevisiae, residues 444-809; also called Rsp5 HECT protein; source: E. coli Rosetta (DE3), purified (TALON, Ulp1 cleavage, Superdex 200); not shown: His6, N-terminal, cleaved; SUMO, N-terminal, cleaved
T2 sequence (looked up): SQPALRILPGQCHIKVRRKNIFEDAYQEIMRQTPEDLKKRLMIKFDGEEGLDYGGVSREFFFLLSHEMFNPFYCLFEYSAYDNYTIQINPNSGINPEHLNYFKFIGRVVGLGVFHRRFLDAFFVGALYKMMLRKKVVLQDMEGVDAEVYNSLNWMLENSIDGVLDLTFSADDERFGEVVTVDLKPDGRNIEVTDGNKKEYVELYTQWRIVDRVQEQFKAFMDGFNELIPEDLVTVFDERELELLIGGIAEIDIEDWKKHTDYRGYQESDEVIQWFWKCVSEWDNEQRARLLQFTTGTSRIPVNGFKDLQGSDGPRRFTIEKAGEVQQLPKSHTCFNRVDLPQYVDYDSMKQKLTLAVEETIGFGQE
The experiment is described as above. Conditions: both partners purified.

B1: Art5 PY motifs containing region (520-586) (domain or fragment, S. cerevisiae, UniProt P53244 520-586, looked up)
chain: STTTAHLALPQPPPNYHESTNDHLMPALQPLGADSVVLTVPSYEQAQAQASASSYVTGSVPAYCDDD
notes: Art5, S. cerevisiae, residues 520-586 with the PY motifs; also called Art5 PY motif containing peptide; PY motifs of Art5; source: E. coli Rosetta (DE3), purified (Glutathione Sepharose, PreScission cleavage, Superdex 200)
The Kd is the free concentration of one partner at which half of the binding sites on the other are occupied at equilibrium, for simple one-to-one binding. The molecule B1 had a Kd in experiment [1] of 3.1 µM.

B2: mono-ubiquitin (WT) (natural protein)
chain: not shown
notes: ubiquitin, S. cerevisiae, amplified from SEY6210 genomic DNA; also called Ub-WT; mono-Ub-WT; source: E. coli Rosetta (DE3), non-tagged, purified (SP Sepharose, Superdex 200)
In the case of B2, the Kd in experiment [2] is about 201 µM.

B3: K63-linked di-ubiquitin (complex)
chain 1: not shown
chain 2: not shown
modifications: distal ubiquitin; its C-terminus is joined by an isopeptide bond to K63 of the proximal ubiquitin | proximal ubiquitin; K63 carries the distal ubiquitin
notes: ubiquitin, S. cerevisiae; distal ubiquitin of the dimer; proximal ubiquitin of the dimer with an extra D77 after the C-terminal Gly-Gly; also called K63 di-Ub; K63-di-Ub; source: synthesised in vitro from purified Ub K63R and Ub D77 with human E1, Ubc13 and Mms2; purified (SP Sepharose, Superdex 75)
The molecule B3 yielded a Kd in experiment [2] of 33 µM.

B4: K48-linked di-Ub (complex)
chain 1: not shown
chain 2: not shown
modifications: distal ubiquitin; its C-terminus is joined by an isopeptide bond to K48 of the proximal ubiquitin | proximal ubiquitin; K48 carries the distal ubiquitin
notes: ubiquitin, S. cerevisiae; distal ubiquitin of the dimer; proximal ubiquitin of the dimer with an extra D77 after the C-terminal Gly-Gly; also called K48 di-Ub; source: synthesised in vitro from purified Ub K48R and Ub D77 with human E1 and E2-25K; purified (SP Sepharose, Superdex 75)
B4: binding in experiment [2] was characterised by a dissociation constant (Kd) of 145 µM.

Values taken from PMC9282857, “Adaptor linked K63 di-ubiquitin activates Nedd4/Rsp5 E3 ligase” (eLife, 2022).
